The target of experiment [1] is T1, HDAC1:MTA1 162–354 complex (UniProt Q13547 1-482; Q13330 162-354).
T1 construct: HDAC1, untagged; MTA1 residues 162-354; Unlabelled complex formed beforehand, used in the anisotropy titration; also called MTA1:HDAC1 complex; HM; source: HEK293F, co-transfected, purified (FLAG resin, TEV cleavage, gel filtration); not shown: His10, N-terminal, cleaved; Flag3, N-terminal, cleaved
The experiment is described as follows: fluorescence polarisation; fluorescence anisotropy of 5-FAM PWWP2A peptide with unlabelled HDAC1:MTA1 162-354 complex; room temperature; 50 mM Tris pH 7.5, 150 mM KAc, 0.15 mg/mL BSA, 0.03% Tween-20; excitation 480 nm, emission 535 nm. The following applies: both partners purified. Background: Fluorescence polarisation rises when a labelled molecule tumbles more slowly, as on binding a larger partner.

Experiment [2] deals with T2, His10-Flag3-TEV-MTA1 162-546 (UniProt Q13330 162-546).
T2 construct: MTA1 residues 162-546 (ELM2 and SANT domains and an additional domain that recruits RBBP4); The complex was captured by the Flag tag and then cut from the resin with TEV before gel filtration; also called FLAG-MTA1 162-546; MTA1-long; source: HEK293F, co-transfected, purified on FLAG resin, TEV cleavage, gel filtration; not shown: His10, N-terminal, kept; Flag3, N-terminal, kept
T2 sequence (looked up): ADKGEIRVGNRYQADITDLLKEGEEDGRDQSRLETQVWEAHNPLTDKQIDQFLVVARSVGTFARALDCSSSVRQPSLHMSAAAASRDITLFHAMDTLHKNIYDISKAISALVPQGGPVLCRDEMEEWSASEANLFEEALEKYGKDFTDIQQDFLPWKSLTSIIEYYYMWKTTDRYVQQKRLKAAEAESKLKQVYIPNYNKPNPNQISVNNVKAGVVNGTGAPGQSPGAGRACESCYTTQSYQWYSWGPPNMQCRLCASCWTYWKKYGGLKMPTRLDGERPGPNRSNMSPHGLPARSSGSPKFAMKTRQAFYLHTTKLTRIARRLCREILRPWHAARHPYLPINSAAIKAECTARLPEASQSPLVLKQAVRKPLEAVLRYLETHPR
Put plainly: co-IP + SEC; co-expression in HEK293F of His10-Flag3-TEV-MTA1 162-546 with untagged HDAC1, RBBP4 and PWWP2A 1-373; FLAG resin, TEV cleavage, Superdex S200 in 25 mM Tris-Cl pH 7.5, 50 mM potassium acetate, 0.5 mM TCEP; SDS-PAGE. The following applies: partners not purified.

Where no end group is shown, it is not given here. The star is where a group is joined. 5FAM = O=C1OC2(c3ccc(O)cc3Oc3cc(O)ccc32)c2ccc(C(=O)*)cc21

T1 sequence (Q13547 whole entry, chain 1 of 2, one chain of several, the tested form may be a part): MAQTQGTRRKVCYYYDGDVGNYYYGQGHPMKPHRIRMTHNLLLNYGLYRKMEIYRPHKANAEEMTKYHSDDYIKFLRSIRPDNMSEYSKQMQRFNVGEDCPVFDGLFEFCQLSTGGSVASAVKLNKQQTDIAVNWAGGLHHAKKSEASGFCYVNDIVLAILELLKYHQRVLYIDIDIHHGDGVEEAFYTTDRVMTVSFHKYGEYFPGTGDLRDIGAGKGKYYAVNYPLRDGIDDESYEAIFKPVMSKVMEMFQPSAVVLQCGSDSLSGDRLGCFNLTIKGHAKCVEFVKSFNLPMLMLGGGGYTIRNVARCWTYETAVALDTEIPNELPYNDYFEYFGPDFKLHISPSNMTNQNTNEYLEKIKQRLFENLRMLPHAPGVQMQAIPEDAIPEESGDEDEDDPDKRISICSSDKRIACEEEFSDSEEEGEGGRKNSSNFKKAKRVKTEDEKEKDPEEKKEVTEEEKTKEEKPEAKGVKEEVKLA

B1: fluorescein-labelled PWWP2A peptide (residues 311–325) (peptide, UniProt Q96N64 311-325, looked up)
peptide: 5FAM-NAIKLRPRQVLCDKC
modifications: cysteine pairing not given here
notes: PWWP2A residues 311-325, contains the motif R/QPRQV/L; source: synthetic peptide (Cambridge Research Biochemicals)
In experiment [1], B1 showed a Kd of 20 to 100 µM.

B2: PWWP2A1–373, untagged, co-expressed in HEK293F cells (domain or fragment, UniProt Q96N64 1-373, looked up)
chain: MAAVAAEAAATAASPGEGGAGEAEPEMEPIPGSEAGTDPLPVTATEASVPDGETDGQQSAPQADEPPLPPPPPPPGELARSPEAVGPELEAEEKLSVRVAESAAAAPQGGPELPPSPASPPEQPPAPEEREEPPLPQPVAPALVPPAGGDSTVSQLIPGSEVRVTLDHIIEDALVVSFRFGEKLFSGVLMDLSKRFGPHGIPVTVFPKREYKDKPEAMPLQSNTFQEGTEVKCEANGAVPDDPSPVPHPELSLAESLWTSKPPPLFHEGAPYPPPLFIRDTYNQSIPQPPPRKIKRPKRKMYREEPTSIMNAIKLRPRQVLCDKCKNSVVAEKKEIRKGSSATDSSKYEDKKRRNESVTTVNKKLKTDHKVDG
notes: source: HEK293F, co-transfected, co-purified with FLAG-MTA1 (FLAG resin, gel filtration)
For B2, the “stoichiometry N” value in experiment [2] was approximately 1.

Usually Kd stands for the equilibrium constant for the complex coming apart. A higher Kd goes with lower affinity. As usually defined, the stoichiometry N is a count of units in the complex or per binding partner.

These data come from paper PMC6143588, “A variant NuRD complex containing PWWP2A/B excludes MBD2/3 to regulate transcription at active genes” (Nature Communications, 2018).
